Here are results for one molecule from patent CN107011436A.

Several values for one entry are separate records, joined by “and”; a condition that tells them apart may be missing. Equal entries are not always repeated. Where two headings read alike, the source gives them in different places.

In assay [1] the target is 纯化的H7N9病毒HA蛋白 (H7N9病毒). The assay is described as follows: ELISA, HA-coated plate, expression supernatant diluted 1:160, anti-human Fc-HRP. On the technique in general: In an ELISA, binding on a coated surface is turned into a signal by an enzyme label.
The target of assay [2] is 纯化的H7N9病毒HA蛋白 (H7N9病毒). Kind of assay: ELISA, HA-coated plate, expression supernatant diluted 1:320, anti-human Fc-HRP.
Assay [3] deals with 纯化的H7N9病毒HA蛋白 (H7N9病毒). The assay is described as follows: ELISA, HA-coated plate, expression supernatant diluted 1:640, anti-human Fc-HRP.
Assay [4] concerns the target 纯化的H7N9病毒HA蛋白 (H7N9病毒). The assay is described as follows: ELISA, HA-coated plate, expression supernatant diluted 1:40, anti-human Fc-HRP.
The target of assay [5] is 纯化的H7N9病毒HA蛋白 (H7N9病毒). The assay is described as follows: ELISA, HA-coated plate, expression supernatant diluted 1:20, anti-human Fc-HRP.
Assay [6] deals with 纯化的H7N9病毒HA蛋白 (H7N9病毒). The assay is described as follows: ELISA, HA-coated plate, expression supernatant diluted 1:80, anti-human Fc-HRP.
Assay [7] concerns the target H7N9病毒Suzhou-03病毒株的HA蛋白 (H7N9病毒). Kind of assay: cell-based or functional assay.
In assay [8] the target is H7N9病毒Wuxi-02病毒株的HA蛋白 (H7N9病毒). The assay is described as follows: cell-based or functional assay.
The target in assay [9] is H7N9病毒Nanjing-06病毒株的HA蛋白 (H7N9病毒). Kind of assay: cell-based or functional assay.
In assay [10] the target is H7N9病毒Wuxi-01病毒株的HA蛋白 (H7N9病毒). The assay is described as follows: cell-based or functional assay.
Assay [11] has as its target 纯化的H7N9病毒HA蛋白 (H7N9病毒).

B1: 抗H7N9病毒的单克隆抗体mAb6137 (antibody, V domains shown)
VH: EVQLVESGGGLVQPGRSLRLSCAASGFIFDDYAMHWVRQAPGKGLEWVSGISWNNNNRAYADSVKGRFTISRDSAKNSLYLQMNSLRAEDTALYYCAKDILSLNMVRGGDEYYGIDVWGQGTTVTVSS
VL: DIQLTQSPSSLSASVGDRVTITCQASQDINNYLNWYQQKPGKAPKLLIFDASNLETGVPSRFSGSGSGTDFTFTISSLQPEDIATYYCQQYGSLLTFGGGTKVDIKR
For B1, the OD450 was determined as 0.971 OD450 in assay [1]; 0.584 OD450 in assay [2]; 0.35 OD450 in assay [3]; 1.91 OD450 in assay [4]; 2.06 OD450 in assay [5]; 1.37 OD450 in assay [6]. The OD450 in assay [11] was 0.211 OD450 and 0.153 OD450. Also, the 中和100×TCID50病毒需要的抗体质量 in assay [7] is 40 ng; in assay [8], 80 ng; in assay [9], 20 ng; in [10], 40 ng.
